# According to patent US20020019519:
# B1: recombinant full-length human NAK protein with hexa His and myc epitope tags (from pcDNA3.1.NAK-Hm, expressed in HEK293 cells) (protein)
# chain: MASDSPARSLDEIDLSALRDPAGIFELVELVGNGTYGQVYKGRHVKTGQLAAIKVMDVTGDEEEEIKQEINMLKKYSHHRNIATYYGAFIKKNPPGMDDQLWLVMEFCGAGSVTDLIKNTKGNTLKEEWIAYICREILRGLSHLHQHKVIHRDIKGQNVLLTENAEVKLVDFGVSAQLDRTVGRRNTFIGTPYWMAPEVIACDENPDATYDFKSDLWSLGITAIEMAEGAPPLCDMHPMRALFLIPRNPAPRLKSKKWSKKFQSFIESCLVKNHSQRPATEQLMKHPFIRDQPNERQVRIQLKDHIDRTKKKRGEKDETEYEYSGSEEEEEENDSGEPSSILNLPGESTLRRDFLRLQLANKERSEALRRQQLEQQQRENEEHKRQLLAERQKRIEEQKEQRRRLEEQQRREKELRKQQEREQRRHYEEQMRREEERRRAEHEQEYIRRQLEEEQRQLEILQQQLLHEQALLLEYKRKQLEEQRQAERLQRQLKQERDYLVSLQHQRQEQRPVEKKPLYHYKEGMSPSEKPAWAKEVEERSRLNRQSSPAMPHKVANRISDPNLPPRSESFSISGVQPARTPPMLRPVDPQIPHLVAVKSQGPALTASQSVHEQPTKGLSGFQEALNVTSHRVEMPRQNSDPTSENPPLPTRIEKFDRSSWLRQEEDIPPKVPQRTTSISPALARKNSPGNGSALGPRLGSQPIRASNPDLRRTEPILESPLQRTSSGSSSSSSTPSSQPSSQGGSQPGSQAGSSERTRVRANSKSEGSPVLPHEPAKVKPEESRDITRPSRPASYKKAIDEDLTALAKELRELRIEETNRPMKKVTDYSSSSEESESSEEEEEDGESETHDGTVAVSDIPRLIPTGAPGSNEQYNVGMVGTHGLETSHADSFSGSISREGTLMIRETSGEKKRSGHSDSNGFAGHINLPDLVQQSHSPAGTPTEGLGRVSTHSQEMDSGTEYGMGSSTKASFTPFVDPRVYQTSPTDEDEEDEESSAAALFTSELLRQEQAKLNEARKISVVNVNPTNIRPHSDTPEIRKYKKRFNSEILCAALWGVNLLVGTENGLMLLDRSGQGKVYNLINRRRFQQMDVLEGLNVLVTISGKKNKLRVYYLSWLRNRILHNDPEVEKKQGWITVGDLEGCIHYKVVKYERIKFLVIALKNAVEIYAWAPKPYHKFMAFKSFADLQHKPLLVDLTVEEGQRLKVIFGSHTGFHVIDVDSGNSYDIYIPSHIQGNITPHAIVILPKTDGMEMLVCYEDEGVYVNTYGRITKDVVLQWGEMPTSVAYIHSNQIMGWGEKAIEIRSVETGHLDGVFMHKRAQRLKFLCERNDKVFFASVRSGGSSQVFFMTLNRNSMMNW
# B2: His and myc epitope tagged human NAK amino acids 1-529 (from pcDNA3.1.NAK(1-529)-Hm, expressed in HEK293 cells) (protein)
# chain: MASDSPARSLDEIDLSALRDPAGIFELVELVGNGTYGQVYKGRHVKTGQLAAIKVMDVTGDEEEEIKQEINMLKKYSHHRNIATYYGAFIKKNPPGMDDQLWLVMEFCGAGSVTDLIKNTKGNTLKEEWIAYICREILRGLSHLHQHKVIHRDIKGQNVLLTENAEVKLVDFGVSAQLDRTVGRRNTFIGTPYWMAPEVIACDENPDATYDFKSDLWSLGITAIEMAEGAPPLCDMHPMRALFLIPRNPAPRLKSKKWSKKFQSFIESCLVKNHSQRPATEQLMKHPFIRDQPNERQVRIQLKDHIDRTKKKRGEKDETEYEYSGSEEEEEENDSGEPSSILNLPGESTLRRDFLRLQLANKERSEALRRQQLEQQQRENEEHKRQLLAERQKRIEEQKEQRRRLEEQQRREKELRKQQEREQRRHYEEQMRREEERRRAEHEQEYIRRQLEEEQRQLEILQQQLLHEQALLLEYKRKQLEEQRQAERLQRQLKQERDYLVSLQHQRQEQRPVEKKPLYHYKEGMSPSE
# B3: His and myc epitope tagged human NAK amino acids 1-337 (from pcDNA3.1.NAK(1-337)-Hm, expressed in HEK293 cells) (protein)
# chain: MASDSPARSLDEIDLSALRDPAGIFELVELVGNGTYGQVYKGRHVKTGQLAAIKVMDVTGDEEEEIKQEINMLKKYSHHRNIATYYGAFIKKNPPGMDDQLWLVMEFCGAGSVTDLIKNTKGNTLKEEWIAYICREILRGLSHLHQHKVIHRDIKGQNVLLTENAEVKLVDFGVSAQLDRTVGRRNTFIGTPYWMAPEVIACDENPDATYDFKSDLWSLGITAIEMAEGAPPLCDMHPMRALFLIPRNPAPRLKSKKWSKKFQSFIESCLVKNHSQRPATEQLMKHPFIRDQPNERQVRIQLKDHIDRTKKKRGEKDETEYEYSGSEEEEEENDSGE
# Target: myelin basic protein (MBP) (Sigma)
# Sequence (P02687 whole entry): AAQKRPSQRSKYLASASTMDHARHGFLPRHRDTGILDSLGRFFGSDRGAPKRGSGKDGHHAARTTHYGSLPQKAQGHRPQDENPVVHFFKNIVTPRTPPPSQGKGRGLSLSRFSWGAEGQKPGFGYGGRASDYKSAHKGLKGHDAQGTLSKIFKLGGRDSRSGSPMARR
row,Protein,"kinase activity (incorporation of phosphate in MBP, 32P, P81 paper, scintillation counting)"
1,B1,Recombinant NAK protein displays enzymatic (kinase) activity
2,B2,display increased kinase activity (FIG. 4b)
3,B3,display increased kinase activity (FIG. 4b)
